Results reported in publication doi:10.1101/2022.11.15.516482 (bioRxiv, 2022).
Each block holds one molecule with its values, some of them ahead of it.

Columns and labels:
[1] = molecular target: Salpingoeca rosetta caveolin (F2U793) (Salpingoeca rosetta); assay: cryo-EM structure
[2] = molecular target: the molecule itself; assay: cryo-EM structure

stoichiometry N [1]: 11
Molecule: Salpingoeca rosetta caveolin (F2U793) (natural protein)

B1: Strongylocentrotus purpuratus caveolin (A0A7M7T4C2) (natural protein, UniProt A0A7M7T4C2 1-159, looked up)
chain: MELIHPENGPSGTVQVPLIQGVDQSDTEDVYRLSPHVTTGFADTFKESNDIMGFSFMEKVNGAIYKYTHFAFYAVLNLLLAPFIAFSFGLSFAVMHFAVVWFVQPIMKLYYVWLRVFNLAYEPALRLVCDPIHRSIALILSGIKGQFKMNSSDVKTSQV
stoichiometry N [2]: 11
